Legend:
TagRFP-XWnt8 = biological target: T1, TagRFP-XWnt8 (Xenopus laevis, UniProt P28026 23-358); experiment: FRAP in living embryos; EGFP-Noggin4 bleached in a single intercellular space of the animal ectoderm that also holds TagRFP-Wnt8 (quasi-immobile); about 1 μM of each; Kd selected to fit the FRAP kinetics by a diffusion-adsorption model; settings: partners not purified
T1 construct: Wnt8 (XWnt8), Xenopus laevis, secreted fusion with TagRFP; also called TagRFP-Wnt8
T1 sequence (looked up): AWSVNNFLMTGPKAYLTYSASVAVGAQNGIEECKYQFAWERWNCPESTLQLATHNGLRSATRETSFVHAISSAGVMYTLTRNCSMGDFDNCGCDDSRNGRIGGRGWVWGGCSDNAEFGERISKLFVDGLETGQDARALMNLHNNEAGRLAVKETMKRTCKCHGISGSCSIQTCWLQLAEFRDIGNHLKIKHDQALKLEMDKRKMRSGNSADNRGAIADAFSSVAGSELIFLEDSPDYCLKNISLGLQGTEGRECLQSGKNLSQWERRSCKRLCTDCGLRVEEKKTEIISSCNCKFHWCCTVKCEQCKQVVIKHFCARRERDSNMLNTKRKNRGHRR

[1] = biological target: Myc-Noggin4 (Xenopus laevis); experiment: co-IP; quantitative co-immunoprecipitation (qCoIP): gradually decreasing concentrations of Flag-Wnt8 added to a standard amount of Myc-Noggin4 pre-mixed with anti-Myc resin; bound and unbound Flag-Wnt8 by quantitative Western blot against Flag-BAP standard
[2] = biological target: 3Myc-His6-Noggin4 (Xenopus laevis); experiment: SPR; Biacore T200; 3Myc-6His-Noggin4 immobilised on CM5 chip (1,500 RU) by amine coupling; 6His-Wnt8 injected; HBS-EP, 25 °C; equilibrium responses fitted to a 1:1 Langmuir model

B1: EGFP-Noggin4 (natural protein)
chain: MVHILVISWLMTLGTWGPTAICAPTNDLEPHNRTQKDMDIGSLRRQLSSGTRPYSLSLSPQDYHYSPKPKHLRVSRLLRLLGSSFDPFWMSVEQPADYSTSLLSTLSQDLYDGASRYRKKLAQEVQGLNFDSLQLPTELSANASQNIQNEIRQWLVQRASCQLTSTWVDLGTVFWPRWVRHTDCDGTNTACSWPPGMACRQAQFTQIKLLAWHCWMKDTGLGWATQQCTWRQVPYPVVAACKCTCR
modifications: No candidate is Noggin4 (P49011 is Noggin1). The paper reports two pseudoalleles and does not say which was used, so nog4.L is assumed. The Table S1 primers show the mature part starting at GQTNDL …
Kd (TagRFP-XWnt8): ≤ 100 nM

B2: Flag-Wnt8 (ligand)
chain: AWSVNNFLMTGPKAYLTYSASVAVGAQNGIEECKYQFAWERWNCPESTLQLATHNGLRSATRETSFVHAISSAGVMYTLTRNCSMGDFDNCGCDDSRNGRIGGRGWVWGGCSDNAEFGERISKLFVDGLETGQDARALMNLHNNEAGRLAVKETMKRTCKCHGISGSCSIQTCWLQLAEFRDIGNHLKIKHDQALKLEMDKRKMRSGNSADNRGAIADAFSSVAGSELIFLEDSPDYCLKNISLGLQGTEGRECLQSGKNLSQWERRSCKRLCTDCGLRVEEKKTEIISSCNCKFHWCCTVKCEQCKQVVIKHFCARRERDSNMLNTKRKNRGHRR
Kd [1]: 10 nM

B3: Xenopus laevis recombinant Wnt8 labeled by 6-Hys-tag at the N-terminus (ligand)
chain: AWSVNNFLMTGPKAYLTYSASVAVGAQNGIEECKYQFAWERWNCPESTLQLATHNGLRSATRETSFVHAISSAGVMYTLTRNCSMGDFDNCGCDDSRNGRIGGRGWVWGGCSDNAEFGERISKLFVDGLETGQDARALMNLHNNEAGRLAVKETMKRTCKCHGISGSCSIQTCWLQLAEFRDIGNHLKIKHDQALKLEMDKRKMRSGNSADNRGAIADAFSSVAGSELIFLEDSPDYCLKNISLGLQGTEGRECLQSGKNLSQWERRSCKRLCTDCGLRVEEKKTEIISSCNCKFHWCCTVKCEQCKQVVIKHFCARRERDSNMLNTKRKNRGHRR
Kd [2]: 90 nM

From PMC4789793, “Noggin4 is a long-range inhibitor of Wnt8 signalling that regulates head development in Xenopus laevis” (Scientific Reports, 2016)
